Source: PMC11430614, “Bacterial Purine Nucleoside Phosphorylases from Mesophilic and Thermophilic Sources: Characterization of Their Interaction with Natural Nucleosides and Modified Arabinofuranoside Analogues” (Biomolecules, 2024)

What was measured:
[1] = tested on: T1, EntPNP (PNP from Enterobacter); assay: HPLC phosphorolysis assay, Michaelis-Menten fit; assay type: biochemical, Enterobacter sp.; details: 50 mM KH2PO4, pH 7.5, 25 °C, tested up to 4 mM, no plateau
T1 construct: commercial preparation (Sigma-Aldrich); acts on 6-oxopurine nucleosides only
Description: HPLC phosphorolysis assay, Michaelis-Menten fit on EntPNP (PNP from Enterobacter)

[2] = tested on: T1, EntPNP (PNP from Enterobacter); assay: coupled xanthine oxidase assay, […] nm, Michaelis-Menten fit; assay type: biochemical, Enterobacter sp.; details: 50 mM KH2PO4, pH 7.5, 25 °C; phosphorolysis
[3] = tested on: Nc1ncnc2c1ncn2[C@@H]1O[C@H](CO)[C@@H](O)[C@H]1O; assay: purified protein; details: 50 mM KH2PO4, pH 7.5, 25 °C, phosphorolysis
[4] = substrate: O=c1[nH]cnc2c1ncn2[C@@H]1O[C@H](CO)[C@@H](O)[C@@H]1O; assay: HPLC phosphorolysis assay, Michaelis-Menten fit; assay type: biochemical, Escherichia coli; details: 50 mM KH2PO4, pH 7.5, 25 °C, tested up to 4 mM, no plateau
Description: HPLC phosphorolysis assay, Michaelis-Menten fit on EcPNP

purified protein = substrate: OC[C@H]1O[C@@H](n2cnc3c(O)ncnc32)[C@H](O)[C@@H]1O; assay: purified protein; assay type: biochemical, Escherichia coli; details: 50 mM KH2PO4, pH 7.5, 25 °C, phosphorolysis

Q: `O=c1[nH]cnc2c1ncn2[C@@H]1O[C@H](CO)[C@@H](O)[C@@H]1O` [9-(β-D-arabinofuranosyl)hypoxanthine] was tested. Which Km [1] did it give?
A: 2900 ± 831 µM

Q: `O=c1[nH]cnc2c1ncn2[C@@H]1O[C@H](CO)[C@@H](O)[C@H]1O` [inosine] was tested. Which Km [2] did it give?
A: 107 ± 21 µM

Q: With EcPNP (Escherichia coli K-12) as the molecule, how does the Km [3] read?
A: 21 ± 5 µM

Q: And the kcat [3]?
A: 137.7 s⁻¹

B1: EcPNP (Escherichia coli K-12) (protein)
chain: ATPHINAEMGDFADVVLMPGDPLRAKYIAETFLEDAREVNNVRGMLGFTGTYKGRKISVMGHGMGIPSCSIYTKELITDFGVKKIIRVGSCGAVLPHVKLRDVVIGMGACTDSKVNRIRFKDHDFAAIADFDMVRNAVDAAKALGIDARVGNLFSADLFYSPDGEMFDVMEKYGILGVEMEAAGIYGVAAEFGAKALTICTVSDHIRTHEQTTAAERQTTFNDMIKIALESVLLGDKE
notes: recombinant from plasmid pER-EcPNP, host E. coli ER2566
Q: Which Km [4] does the source give for B1 here?
A: 1810 ± 371 µM

Q: What about the kcat [4] of the same molecule?
A: 0.709 s⁻¹

Q: And the Km (purified protein)?
A: 76 ± 21 µM

Q: And the kcat (purified protein)?
A: 29.2 s⁻¹
